Legend:
[1] = system: HCC827 ER15 cells; details: HCC827 ER15, 72 hours, L3-1Y 0.14 μg/ml, Erlotinib 10 nm
Method: HCC827 ER15, which expresses c-Met at a high level but Cbl at a relatively low level was used in assay for the apoptotic effect of a combination dosage of an anti-c-Met antibody and an EGFR antagonist.
Then, cell viability was measured in the same manner as in Example 1.4.

[2] = system: EBC-1 tumor; assay: Tumor xenograft model, EBC-1; assay type: in vivo, BALB/c nude mice; details: EBC-1 xenograft, 5 mg/kg I.V. once/week, 28th day
Method: (§1) For use in examining in vivo effects of anti-c-Met antibody on tumor growth, male BALB/c nude mice, 5˜6 weeks old, were xenografted with a tumor (all experiments were carried out in Pharmalegacy, China). For at least one week before the transplantation, the mice were acclimated.
(§2) Then, the mice were anesthetized with 1-2% isofuran and xenografted subcutaneously in the right flank with 5×10^6 cells of EBC-1 or HS746T. Seven days after the grafting, the tumors measured 50 mm3 or greater on average. The mice were divided into the following three groups: 5D5 (5 mg/kg I.V. once/week) treated, L3-1Y (5 mg/kg I.V. once/week) treated, and vehicle (PBS 0.2 ml I.V. once/week) treated (control). Each group was composed of 15 mice.
(§3) Over a total of five weeks, volumes and weights of the tumors were measured […]. Tumor volume (V) was calculated according to the following formula: V (mm3)={Long Axis Length (mm)×(Small Axis Length (mm))2}/2.
(§4) L3-1Y (1) is an antibody based on hIgG1 with the Th7 hinge (usually referred to just as L3-1Y) while L3-1Y (2) contains the same epitope but has the hIgG2 backbone. […] Tumor suppression of each of the antibodies was expressed as percentages of volume reduction compared to the tumor volume on the 28th day of the vehicle-treated group (0%) in Table 3 for EBC-1 and Table 4 for HS746T.

[3] = system: HS746T tumor; assay: Tumor xenograft model, HS746T; assay type: in vivo, BALB/c nude mice; details: 5 mg/kg I.V. once/week, 28th day
Method: as §1, §2, §3, §4

Molecule | cell viability as percentage of untreated control [1] | At d28:TV; tumor suppression as percentage of volume reduction compared to vehicle-treated group [2] [%] | At d28:TV; tumor suppression as percentage of volume reduction compared to vehicle-treated group [3]
C#Cc1cccc(Nc2ncnc3cc(OCCOC)c(OCCOC)cc23)c1 [Erlotinib] | almost no apoptotic effects | – | –
L3-1Y (2): contains the same epitope as L3-1Y but has the hIgG2 backbone (antibody) heavy: EVQLVESGGGLVQPGGSLRLSCAASGFTFTDYYMSWVRQAPGKGLEWLGFIRNKANGYTTEYSASVKGRFTISRDNSKNTLYLQMNSLRAEDTAVYYCARDNWFAYWGQGTLVTVSSASTKGPSVFPLAPCSRSTSESTAALGCLVKDYFPEPVTVSWNSGALTSGVHTFPAVLQSSGLYSLSSVVTVPSSNFGTQTYTCNVDHKPSNTKVDKTVERKCCVECPPCPAPPVAGPSVFLFPPKPKDTLMISRTPEVTCVVVDVSHEDPEVQFNWYVDGVEVHNAKTKPREEQFNSTFRVVSVLTVVHQDWLNGKEYKCKVSNKGLPAPIEKTISKTKGQPREPQVYTLPPSREEMTKNQVSLTCLVKGFYPSDIAVEWESNGQPENNYKTTPPMLDSDGSFFLYSKLTVDKSRWQQGNVFSCSVMHEALHNHYTQKSLSLSPGK light: DIQMTQSPSSLSASVGDRVTITCKSSQSLLASGNQNNYLAWYQQKPGKAPKMLIIWASTRVSGVPSRFSGSGSGTDFTLTISSLQPEDFATYYCQQSYSRPYTFGQGTKVEIKRTVAAPSVFIFPPSDEQLKSGTASVVCLLNNFYPREAKVQWKVDNALQSGNSQESVTEQDSKDSTYSLSSTLTLSKADYEKHKVYACEVTHQGLSSPVTKSFNRGEC | – | 87.0 | Regression

Source: patent US9213031B2, “Use of Cbl as biomarker for identifying subject suitable for treatment with anti-c-Met antibody” (SAMSUNG ELECTRONICS CO., LTD., priority 2012, dated 2015)
